From the DeepSol protein solubility set come the findings set out here.

This data set is described as follows: soluble on expression in E. coli; label from the status in PepcDB or PDB records.
With “MGSDKIHHHHHHMQNLHIFGEQKKTDWVIFENLEKVESKTLTEEGSAIRLNSGKYRKLKAISSVDPDVLYSTCKQFLPLNELEVLNKWEPSWGKVREDILNSKVELWNQCMHESACQYAPEVVSTKAYWKSVQQHIWFCTSSSELKEDIRTCFMLDFYITVQKEGRTKQSNLTRSWLSPINVQEEDLQELVLYTANAAMEKLDARPFPSGSYALILGPLAAPGIFHEVVGHGLEADIASIPQSAFHQRLGAMVGCEKVTIIDDPTKEGLPGSYSLDDEGTIAQQTTLIEKGRVVNYLSHLHTGHPTNGHGRVINYQHLPLVRMSNTFLLPGTDDPEEMVSDTEVGLYVKKAINGDVNMITGEFEIHVAEGYLIEKGQITSPILPTTLKGDGQKLLQSIDRVGNDFAIHSEVRGGCGKLGQSPLPVSAGSPTVRVLDWYVKGADR”, the “soluble on expression in E. coli” value is listed as “not soluble”.

“SMAFKIQLDTLGQLPGLLSIYTQISLLYPVSDSSQYPTIVSTFEQGLKRFSEAVPWVAGQVKAEGISEGNTGTSFIVPFEDVPRVVVKDLRDDPSAPTIEGMRKAGYPMAMFDENIIAPRKTLPIGPGTGPDDPKPVILLQLNFIKGGLILTVNGQHGAMDMVGQDAVIRLLSKACRNDPFTEEEMTAMNLDRKTIVPYLENYTIGPEVDHQIVKADVAGGDAVLTPVSASWAFFTFSPKAMSELKDAATKTLDASTKFVSTDDALSAFIWKSASRVRLERIDGSAPTEFCRAVDARPAMGVSNNYPGLLQNMTYHNSTIGEIANESLGATASRLRSELDPASMRQRTRGLATYLHNNPDKSNVSLTADADPSTSVMLSSWAKVGLWDYDFGLGLGKPETVRRPIFEPVESLMYFMPKKPDGEFCAALSLRDEDMDRLKADKEWTKYAQYVG”: the “soluble on expression in E. coli” value is recorded as “soluble”.

Regarding “MAHHHHHHMPSDGEGKVQQVNIDEIDAVTGFKKAELYVWNAYAAAFLAEGGEPETDVEAWIDDFCQRSEESGAVFDRNFVKSVCTLGIYAGPRDEFQQRSGCGKATYASGDTYEGEFFEGKKHGRGQYIFVSKGRSEADRVVSKEVELLTSAGKDAKAMVTEIATKLQLGRHVVEGIMQYGQRPCYHGDYVRGKRTGRGVMKNKDGTLYQGEFLENKRHGQGVYYYLNGDVYSGNWKAGAKDGYGTYHFAEGSEYRGEWVRGNFVQGQWILQGGSYYEGKFDKKNRPLDDAASLHYPSIQMAQTGAFRRGIWAPTSALQVCSEVPVDGMAWAD”, the “soluble on expression in E. coli” value was “soluble”.

Turning to “MGSDKIHHHHHHKDDADAPLRFYDSKYEVPMGGRRYLGIESGNGDYSLEIGNPRIASAGIESGWSGVPAGRMIYISGILTGSTYLKVTDNATQETLTLPIKVVDYYEDLNLIHGSSSLRPNGDENLLPGVDDIFLVSNAARDAYFFKQGQRTAFSSGLELITKGTYALKQEDENKATLTLTFSLDASPATEHHFTVWGNTYLLHRLDKNLHLNWGTPPIGETRTSPAPPPAYTLEEITEGAEPGTGRQVGFILNYKEIPTGILP”, the “soluble on expression in E. coli” value is recorded as “not soluble”.

In the case of “MGSDKIHHHHHHMKKTIIISMLLAAGAATYYFTQQTETPKGPRGRPTPNVVVAKAEMQPIRDEVEALGTGKANESITVTPKVTDMVTEINFNDGQMVDKGQLLVRLQDREQIARVTVARVKMKDHERELARISSLVTSQTVAALERDRLQTLIDTAKAELDQAESSLKDRRILAPFSGRLGLRQVSQGSLVTPGTVITTLDDISTIKLDFSVPERFLQSLAIGKSVEASAVAFEGELFTGKVVSVDSRINPTTRAVTVRAEIPNKGMRLLPGMLMKVKLIKQSREALIIPEAAIIPIQKDHFVYLVNDENVVERRQVQLGLRKRGWVEIVGGVDVGEQVMVRGILKVRPGDTVKVQYSEHFSFNQQAKVEPLA”, the “soluble on expression in E. coli” value is on record as “not soluble”.

For the sequence “MSLAGKKIVLGVSGGIAAYKTPELVRRLRDRGADVRVAMTEAAKAFITPLSLQAVSGYPVSDSLLDPAAEAAMGHIELGKWADLVILAPATADLIARVAAGMANDLVSTICLATPAPVAVLPAMNQQMYRAAATQHNLEVLASRGLLIWGPDSGSQACGDIGPGRMLDPLTIVDMAVAHFSPVNDLKHLNIMITAGPTREPLDPVRYISNHSSGKMGFAIAAAAARRGANVTLVSGPVSLPTPPFVKRVDVMTALEMEAAVNASVQQQNIFIGCAAVADYRAATVAPEKIKKQATQGDELTIKMVKNPDIVAGVAALKDHRPYVVGFAAETNNVEEYARQKRIRKNLDLICANDVSQPTQGFNSDNNALHLFWQDGDKVLPLERKELLGQLLLDEIVTRYDEKNRR”, the “soluble on expression in E. coli” value is on record as “soluble”.

Consider “MGSDKIHHHHHHMTQTQPKFLTIYNTLYKEIQIGKYPSGHALPTEKELCARFDVSRMTLRQAIKLLAEDGIVESTRGKGHFVIPQTNAQHASSMDQFKHPLDQILLARVSMSSINYRVDLESEYTNHLFANHPSAVIAMERYYQKKDNHSKQADAFCFTFIPLNVIDTFKVNTQNEDDMKTFVEQTIYSNAYQSDLKMSITKAPRFKNHSHVFDGDTHCWLIIETLYAQTPYPIMINKWYIPQEISELTLTRIRQSDY”, for which the “soluble on expression in E. coli” value is on record as “not soluble”.

Take “MGSDKIHHHHHHMIFVGCSGWSYEEWNGVFYPKSKINKLKFYSTMFNTVEVNSTFYREINNDIINRWIETVRGKNFIFSIKVPQNITHKAILEKDSNSKSLYETFIDKTVRPIRNARMLGAVLVQLPPSFNSNLQTELLDTICCENEYRTAVEVRNKDLYSNEELRKELEKRGIAIVDVDSTEHPLSNLNSGLKWSYVRLHGRAQLGWKSQNPYDYRYSEQEISDLSSKIMAKNYDEIFVYFNNHPRGSAPINALKMASCLGISNNWFF”: the “soluble on expression in E. coli” value is “not soluble”.

As for “MGSDKIHHHHHHMTQVIPPRCDTCACDDADWCHLQETTKLLLLATAQIELSLTDGDHNVTGLGQLFTQMAGHLTEVNRHLHGTADTPAAILAHSDSLMQAIDSGVMAFQFYDRISQRLNHVITALSLMEAMLGDEQRRHSQAAWTNLQGEIQAHYSLDCERQMFAALLEGVPIHEALNAYRETHLHQTKQDVELF”, the “soluble on expression in E. coli” value is listed as “not soluble”.

As for “MAHHHHHHMMLKVRYENFNDLRNDDEMLNISFVAHPCYYSILDLEESELFNKIVYENFCKVAEKVDIYDKNEYLSVYRRHDKKCRELHMLKSWELLKNTYRYKMPVIFKNLKDFDLYNMEKIPFYSINYNKKKKGTKENGFVVRNKKKINIIDKGKCFILDNHMIYSMTPEYIANNISKNILLNTHHIMKGNNILSLKEDDKYVKHQKVNDNPYYFKLRYHYNDDDIYCKDNYSYKRKGISPIKKKRKIEPILYNNKKMDYEEKKRILIYLDPFAGAGGNCNHMNNIFTIGCDINFYRIKQCQHNCNFYNKNVDFILCDFFNLVTHFRKGTIDVIFFSIPWGGPKYKNKKNFELNTEIMDNISIYKCIEVSVELTENLVFYLPRNVCMKELYYLYGYYKELVKNKKCVNYENDDIYKYDRKGEGGKKKKKKKKKKILS”, the “soluble on expression in E. coli” value is listed as “not soluble”.

For the sequence “MGIHRLWKRFTIDCSGVRRGQTVLDLAGGTGDLTAKFSRLVGETGKVVLADINESMLKMGREKLRNIGVIGNVEYVQANAEALPFPDNTFDCITISFGLRNVTDKDKALRSMYRVLKPGGRLLVLEFSKPIIEPLSKAYDAYSFHVLPRIGSLVANDADSYRYLAESIRMHPDQDTLKAMMQDAGFESVDYYNLTAGVVALHRGYKLEHHHHHH”, the “soluble on expression in E. coli” value was “not soluble”.

With “MRFFSLIKLPVVLVLAGLLSACGFHLRGEYSVPEELHTMSFSSYDEYSKLTRYVRSQLQLNKVDLVQPSSSVPNLHLIKATMDERTLSLYQNSRAAEKELTYVVQYRVTIPGFGSKNFTTTVNRNYLDNPLTALAKSVERDVIEDEMRQQAAKQMMRQLGRIRAEYEAGQIAAPTEKTNSLEHHHHHH”, the “soluble on expression in E. coli” value was “not soluble”.

Consider “MGSDKIHHHHHHMTTKDISRPVCILGLGLIGGSLLRDLHAANHSVFGYNRSRSGAKSAVDEGFDVSADLEATLQRAAAEDALIVLAVPMTAIDSLLDAVHTHAPNNGFTDVVSVKTAVYDAVKARNMQHRYVGSHPMAGTANSGWSASMDGLFKRAVWVVTFDQLFDGTDINSTWISIWKDVVQMALAVGAEVVPSRVGPHDAAAARVSHLTHILAETLAIVGDNGGALSLSLAAGSYRDSTRVAGTDPGLVRAMCESNAGPLVKALDEALAILHEAREGLTAEQPNIEQLADNGYRSRIRYEARSGQRRAKESVSPTITSSRPVLRLHPGTPNWEKQLIHAETLGARIEVF”, for which the “soluble on expression in E. coli” value is given as “not soluble”.
